Experimental data published in US20150315296A1 (Hoffmann-La Roche, published 2015).
Changes are numbered by the printed parent chain.

How the values were obtained:
[1] = molecular target: T1, human VEGFA-121-His (human, UniProt P15692-9 27-147); assay: SPR (Biacore T200), VEGFA-121-His amine-coupled on C1 chip, antibody in solution, 25 C, 1:1 Langmuir
T1 construct: also called VEFGA-121-His; not shown: His tag
T1 sequence (looked up): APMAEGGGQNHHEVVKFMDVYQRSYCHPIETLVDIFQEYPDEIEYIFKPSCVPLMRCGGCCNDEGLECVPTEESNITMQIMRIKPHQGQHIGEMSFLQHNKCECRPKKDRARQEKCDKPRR
Procedure: (§1) Binding of indicated antibodies to human VEGFA-121 was investigated by surface plasmon resonance using a BIACORE® T200 instrument (GE Healthcare). Aim for 50 RU of VEFGA-121-His were coupled on a Series S C1 chip (GE Healthcare BR-1005-35) at pH 5.0 by using an amine coupling kit supplied by the GE Healthcare. HBS-N(10 mM HEPES, 150 mM NaCl pH 7.4, GE Healthcare) was used as running buffer during the immobilization procedure. For the following kinetic characterization, sample and running buffer was PBS-T (10 mM phosphate buffered saline including 0.05% Tween20) at pH 7.4. The flow cell was set to 25° C.—and the sample block set to 12° C.—and primed with running buffer twice prior to kinetic characterization.
The association was measured by injection the indicated antibody in various concentrations in solution for 180 sec at a flow of 30 μl/min starting with 100 nM in 1:3 serial dilutions. The dissociation phase was monitored for up to 300 sec and triggered by switching from the sample solution to running buffer. The surface was regenerated by 30 sec washing with a 0.85% H₃PO₄ (phosphoric acid) solution at a flow rate of 30 μl/min Bulk refractive index differences were corrected by subtracting the response obtained from a anti His antibody surface. Blank injections are also subtracted (=double referencing). For calculation of KD and other kinetic parameters the Langmuir 1:1 model was used.

[2] = molecular target: T2, human Ang-2-RBD-Fc (human, UniProt O15123 275-496, limits assumed); assay: SPR (Biacore T200), antibody captured by anti-human F(ab')2, Ang2-RBD-Fc in solution, 25 C, apparent KD, 1:1 Langmuir
T2 construct: domain: RBD; not shown: Fc part
T2 sequence (looked up): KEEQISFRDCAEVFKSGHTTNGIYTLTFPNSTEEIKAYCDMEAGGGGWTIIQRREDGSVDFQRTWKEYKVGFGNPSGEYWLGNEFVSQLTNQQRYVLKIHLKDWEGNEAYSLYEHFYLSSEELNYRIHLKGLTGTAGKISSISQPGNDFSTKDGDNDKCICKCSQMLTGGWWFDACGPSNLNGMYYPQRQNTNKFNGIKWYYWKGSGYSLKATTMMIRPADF
Procedure: as §1, with “Ang-2-RBD-Fc” for “VEGFA-121”, “Around 8000 (RU)” for “Aim for 50 RU”, “goat anti human F(ab′)₂ (10 μg/ml anti human F(ab)′₂; Order Code: 28958325; GE Healthcare Bio-Sciences AB, Sweden)” for “VEFGA-121-His”, “CM5” for “C1”, “BR-1005-30)” for “BR-1005-35)”
The bispecific antibody was captured by injecting a 5 nM solution for 25 sec at a flow of 5 μl/min. The association was measured by injection of human Ang2-RBD-Fc in various concentrations in solution for 120 sec at a flow of 30 μl/min starting with 100 nM in 1:3 serial dilutions. The dissociation phase was monitored for up to 180 sec and triggered by switching from the sample solution to running buffer. The surface was regenerated by 60 sec washing with a Glycine pH 2.1 solution at a flow rate of 30 μl/min Bulk refractive index differences were corrected by subtracting the response obtained from a goat anti human F(ab′)₂ surface. Blank injections are also subtracted (=double referencing). For calculation of apparent KD and other kinetic parameters the Langmuir 1:1 model was used.

B1: xFab-Fab<ANG2-VEGF>-uncharged (Ang2VEGF-0452) (bispecific antibody)
light 1: QPGLTQPPSVSVAPGQTARITCGGNNIGSKSVHWYQQKPGQAPVLVVYDDSDRPSGIPERFSGSNSGNTATLTISRVEAGDEADYYCQVWDSSSDHYVFGTGTKVTVLRTVAAPSVFIFPPSDEQLKSGTASVVCLLNNFYPREAKVQWKVDNALQSGNSQESVTEQDSKDSTYSLSSTLTLSKADYEKHKVYACEVTHQGLSSPVTKSFNRGEC
heavy: not shown
light 2: EVQLVESGGGLVQPGGSLRLSCAASGYTFTNYGMNWVRQAPGKGLEWVGWINTYTGEPTYAADFKRRFTFSLDTSKSTAYLQMNSLRAEDTAVYYCAKYPHYYGSSHWYFDVWGQGTLVTVSSASVAAPSVFIFPPSDEQLKSGTASVVCLLNNFYPREAKVQWKVDNALQSGNSQESVTEQDSKDSTYSLSSTLTLSKADYEKHKVYACEVTHQGLSSPVTKSFNRGEC
notes: Bivalent, Fc-free CrossFab(VH-VL)-Fab format
- Kd [1]: 0.35 nM
- Kd [2]: 3 nM

B2: xFab2-Fab<ANG2-VEGF>-uncharged (Ang2VEGF-0453) (bispecific antibody)
light 1: B1 light 1
heavy: not shown
light 2: B1 light 2
notes: Trivalent, Fc-free (CrossFab VH-VL)2-Fab format
- Kd [1]: 0.22 nM
- Kd [2]: 5 nM

B3: xFab-Fab<ANG2-VEGF>-charged (Ang2VEGF-0447) (bispecific antibody)
light 1: B1 light 1 with E124K, Q125R
heavy: not shown
light 2: B1 light 2
notes: as for B1
- Kd [1]: 0.36 nM
- Kd [2]: 3 nM

B4: xFab2-Fab<ANG2-VEGF>-charged (Ang2VEGF-0448) (bispecific antibody)
light 1: B1 light 1 with E124K, Q125R
heavy: not shown
light 2: B1 light 2
notes: as for B2
- Kd [1]: 0.18 nM
- Kd [2]: 4 nM
